Test results: patent US7067646 (Dana-Farber, dated 2006)
Blank lines part the entries; values can stand above or below the binder they belong to.

Assays:
[1] = target: T1, MTAF600 (microtubule associated factor 600) (human, UniProt Q5T4S7 1-5183); test: immunoprecipitation with p107 antibody from HeLa extract, anti-MTAF600 immunoblot
T1 construct: Native endogenous protein of HeLa nuclear extracts (5183 residues); also called MT-associated factor (MTAF) 600; 600 kDa subunit

[2] = target: T1, MTAF600 (microtubule associated factor …); test: immunoprecipitation with RB antibody from HeLa extract, anti-MTAF600 immunoblot
[3] = target: T1, MTAF600 (microtubule associated factor …); test: anti-FLAG immunoprecipitation of C-terminally tagged RB from HeLa cells
[4] = target: T1, MTAF600 (microtubule associated factor …); test: immunoprecipitation with p130 antibody from HeLa extract, anti-MTAF600 immunoblot
GST-RB (379-928) = target: T2, GST-RB (379-928) (UniProt P06400 379-928); test: GST-RB (379-928) pull-down of His-tagged fragment from E. coli, Coomassie stain and anti-His immunoblot
T2 construct: Expressed in E. coli; also called large pocket domain of RB as GST fusion; not shown: glutathione S-transferase (GST) fusion partner of vector pGEX6P-1
T2 sequence (looked up): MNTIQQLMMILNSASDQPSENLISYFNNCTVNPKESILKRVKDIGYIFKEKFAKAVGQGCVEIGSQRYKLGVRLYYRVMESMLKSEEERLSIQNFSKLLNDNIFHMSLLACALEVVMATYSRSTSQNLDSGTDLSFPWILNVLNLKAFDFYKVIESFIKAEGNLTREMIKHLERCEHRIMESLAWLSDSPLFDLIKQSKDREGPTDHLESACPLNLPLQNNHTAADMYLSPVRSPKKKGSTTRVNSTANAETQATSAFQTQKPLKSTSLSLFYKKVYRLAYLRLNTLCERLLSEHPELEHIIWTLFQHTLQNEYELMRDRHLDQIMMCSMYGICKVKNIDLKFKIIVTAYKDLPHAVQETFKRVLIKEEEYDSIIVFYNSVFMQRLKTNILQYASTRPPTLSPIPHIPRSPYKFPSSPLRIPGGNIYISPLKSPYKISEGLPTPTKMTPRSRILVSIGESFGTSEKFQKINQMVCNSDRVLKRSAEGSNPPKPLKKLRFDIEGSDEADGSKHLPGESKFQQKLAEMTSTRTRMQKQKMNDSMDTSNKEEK

T1 sequence (Q5T4S7 other isoform, or with tags, fused parts or gaps limits assumed): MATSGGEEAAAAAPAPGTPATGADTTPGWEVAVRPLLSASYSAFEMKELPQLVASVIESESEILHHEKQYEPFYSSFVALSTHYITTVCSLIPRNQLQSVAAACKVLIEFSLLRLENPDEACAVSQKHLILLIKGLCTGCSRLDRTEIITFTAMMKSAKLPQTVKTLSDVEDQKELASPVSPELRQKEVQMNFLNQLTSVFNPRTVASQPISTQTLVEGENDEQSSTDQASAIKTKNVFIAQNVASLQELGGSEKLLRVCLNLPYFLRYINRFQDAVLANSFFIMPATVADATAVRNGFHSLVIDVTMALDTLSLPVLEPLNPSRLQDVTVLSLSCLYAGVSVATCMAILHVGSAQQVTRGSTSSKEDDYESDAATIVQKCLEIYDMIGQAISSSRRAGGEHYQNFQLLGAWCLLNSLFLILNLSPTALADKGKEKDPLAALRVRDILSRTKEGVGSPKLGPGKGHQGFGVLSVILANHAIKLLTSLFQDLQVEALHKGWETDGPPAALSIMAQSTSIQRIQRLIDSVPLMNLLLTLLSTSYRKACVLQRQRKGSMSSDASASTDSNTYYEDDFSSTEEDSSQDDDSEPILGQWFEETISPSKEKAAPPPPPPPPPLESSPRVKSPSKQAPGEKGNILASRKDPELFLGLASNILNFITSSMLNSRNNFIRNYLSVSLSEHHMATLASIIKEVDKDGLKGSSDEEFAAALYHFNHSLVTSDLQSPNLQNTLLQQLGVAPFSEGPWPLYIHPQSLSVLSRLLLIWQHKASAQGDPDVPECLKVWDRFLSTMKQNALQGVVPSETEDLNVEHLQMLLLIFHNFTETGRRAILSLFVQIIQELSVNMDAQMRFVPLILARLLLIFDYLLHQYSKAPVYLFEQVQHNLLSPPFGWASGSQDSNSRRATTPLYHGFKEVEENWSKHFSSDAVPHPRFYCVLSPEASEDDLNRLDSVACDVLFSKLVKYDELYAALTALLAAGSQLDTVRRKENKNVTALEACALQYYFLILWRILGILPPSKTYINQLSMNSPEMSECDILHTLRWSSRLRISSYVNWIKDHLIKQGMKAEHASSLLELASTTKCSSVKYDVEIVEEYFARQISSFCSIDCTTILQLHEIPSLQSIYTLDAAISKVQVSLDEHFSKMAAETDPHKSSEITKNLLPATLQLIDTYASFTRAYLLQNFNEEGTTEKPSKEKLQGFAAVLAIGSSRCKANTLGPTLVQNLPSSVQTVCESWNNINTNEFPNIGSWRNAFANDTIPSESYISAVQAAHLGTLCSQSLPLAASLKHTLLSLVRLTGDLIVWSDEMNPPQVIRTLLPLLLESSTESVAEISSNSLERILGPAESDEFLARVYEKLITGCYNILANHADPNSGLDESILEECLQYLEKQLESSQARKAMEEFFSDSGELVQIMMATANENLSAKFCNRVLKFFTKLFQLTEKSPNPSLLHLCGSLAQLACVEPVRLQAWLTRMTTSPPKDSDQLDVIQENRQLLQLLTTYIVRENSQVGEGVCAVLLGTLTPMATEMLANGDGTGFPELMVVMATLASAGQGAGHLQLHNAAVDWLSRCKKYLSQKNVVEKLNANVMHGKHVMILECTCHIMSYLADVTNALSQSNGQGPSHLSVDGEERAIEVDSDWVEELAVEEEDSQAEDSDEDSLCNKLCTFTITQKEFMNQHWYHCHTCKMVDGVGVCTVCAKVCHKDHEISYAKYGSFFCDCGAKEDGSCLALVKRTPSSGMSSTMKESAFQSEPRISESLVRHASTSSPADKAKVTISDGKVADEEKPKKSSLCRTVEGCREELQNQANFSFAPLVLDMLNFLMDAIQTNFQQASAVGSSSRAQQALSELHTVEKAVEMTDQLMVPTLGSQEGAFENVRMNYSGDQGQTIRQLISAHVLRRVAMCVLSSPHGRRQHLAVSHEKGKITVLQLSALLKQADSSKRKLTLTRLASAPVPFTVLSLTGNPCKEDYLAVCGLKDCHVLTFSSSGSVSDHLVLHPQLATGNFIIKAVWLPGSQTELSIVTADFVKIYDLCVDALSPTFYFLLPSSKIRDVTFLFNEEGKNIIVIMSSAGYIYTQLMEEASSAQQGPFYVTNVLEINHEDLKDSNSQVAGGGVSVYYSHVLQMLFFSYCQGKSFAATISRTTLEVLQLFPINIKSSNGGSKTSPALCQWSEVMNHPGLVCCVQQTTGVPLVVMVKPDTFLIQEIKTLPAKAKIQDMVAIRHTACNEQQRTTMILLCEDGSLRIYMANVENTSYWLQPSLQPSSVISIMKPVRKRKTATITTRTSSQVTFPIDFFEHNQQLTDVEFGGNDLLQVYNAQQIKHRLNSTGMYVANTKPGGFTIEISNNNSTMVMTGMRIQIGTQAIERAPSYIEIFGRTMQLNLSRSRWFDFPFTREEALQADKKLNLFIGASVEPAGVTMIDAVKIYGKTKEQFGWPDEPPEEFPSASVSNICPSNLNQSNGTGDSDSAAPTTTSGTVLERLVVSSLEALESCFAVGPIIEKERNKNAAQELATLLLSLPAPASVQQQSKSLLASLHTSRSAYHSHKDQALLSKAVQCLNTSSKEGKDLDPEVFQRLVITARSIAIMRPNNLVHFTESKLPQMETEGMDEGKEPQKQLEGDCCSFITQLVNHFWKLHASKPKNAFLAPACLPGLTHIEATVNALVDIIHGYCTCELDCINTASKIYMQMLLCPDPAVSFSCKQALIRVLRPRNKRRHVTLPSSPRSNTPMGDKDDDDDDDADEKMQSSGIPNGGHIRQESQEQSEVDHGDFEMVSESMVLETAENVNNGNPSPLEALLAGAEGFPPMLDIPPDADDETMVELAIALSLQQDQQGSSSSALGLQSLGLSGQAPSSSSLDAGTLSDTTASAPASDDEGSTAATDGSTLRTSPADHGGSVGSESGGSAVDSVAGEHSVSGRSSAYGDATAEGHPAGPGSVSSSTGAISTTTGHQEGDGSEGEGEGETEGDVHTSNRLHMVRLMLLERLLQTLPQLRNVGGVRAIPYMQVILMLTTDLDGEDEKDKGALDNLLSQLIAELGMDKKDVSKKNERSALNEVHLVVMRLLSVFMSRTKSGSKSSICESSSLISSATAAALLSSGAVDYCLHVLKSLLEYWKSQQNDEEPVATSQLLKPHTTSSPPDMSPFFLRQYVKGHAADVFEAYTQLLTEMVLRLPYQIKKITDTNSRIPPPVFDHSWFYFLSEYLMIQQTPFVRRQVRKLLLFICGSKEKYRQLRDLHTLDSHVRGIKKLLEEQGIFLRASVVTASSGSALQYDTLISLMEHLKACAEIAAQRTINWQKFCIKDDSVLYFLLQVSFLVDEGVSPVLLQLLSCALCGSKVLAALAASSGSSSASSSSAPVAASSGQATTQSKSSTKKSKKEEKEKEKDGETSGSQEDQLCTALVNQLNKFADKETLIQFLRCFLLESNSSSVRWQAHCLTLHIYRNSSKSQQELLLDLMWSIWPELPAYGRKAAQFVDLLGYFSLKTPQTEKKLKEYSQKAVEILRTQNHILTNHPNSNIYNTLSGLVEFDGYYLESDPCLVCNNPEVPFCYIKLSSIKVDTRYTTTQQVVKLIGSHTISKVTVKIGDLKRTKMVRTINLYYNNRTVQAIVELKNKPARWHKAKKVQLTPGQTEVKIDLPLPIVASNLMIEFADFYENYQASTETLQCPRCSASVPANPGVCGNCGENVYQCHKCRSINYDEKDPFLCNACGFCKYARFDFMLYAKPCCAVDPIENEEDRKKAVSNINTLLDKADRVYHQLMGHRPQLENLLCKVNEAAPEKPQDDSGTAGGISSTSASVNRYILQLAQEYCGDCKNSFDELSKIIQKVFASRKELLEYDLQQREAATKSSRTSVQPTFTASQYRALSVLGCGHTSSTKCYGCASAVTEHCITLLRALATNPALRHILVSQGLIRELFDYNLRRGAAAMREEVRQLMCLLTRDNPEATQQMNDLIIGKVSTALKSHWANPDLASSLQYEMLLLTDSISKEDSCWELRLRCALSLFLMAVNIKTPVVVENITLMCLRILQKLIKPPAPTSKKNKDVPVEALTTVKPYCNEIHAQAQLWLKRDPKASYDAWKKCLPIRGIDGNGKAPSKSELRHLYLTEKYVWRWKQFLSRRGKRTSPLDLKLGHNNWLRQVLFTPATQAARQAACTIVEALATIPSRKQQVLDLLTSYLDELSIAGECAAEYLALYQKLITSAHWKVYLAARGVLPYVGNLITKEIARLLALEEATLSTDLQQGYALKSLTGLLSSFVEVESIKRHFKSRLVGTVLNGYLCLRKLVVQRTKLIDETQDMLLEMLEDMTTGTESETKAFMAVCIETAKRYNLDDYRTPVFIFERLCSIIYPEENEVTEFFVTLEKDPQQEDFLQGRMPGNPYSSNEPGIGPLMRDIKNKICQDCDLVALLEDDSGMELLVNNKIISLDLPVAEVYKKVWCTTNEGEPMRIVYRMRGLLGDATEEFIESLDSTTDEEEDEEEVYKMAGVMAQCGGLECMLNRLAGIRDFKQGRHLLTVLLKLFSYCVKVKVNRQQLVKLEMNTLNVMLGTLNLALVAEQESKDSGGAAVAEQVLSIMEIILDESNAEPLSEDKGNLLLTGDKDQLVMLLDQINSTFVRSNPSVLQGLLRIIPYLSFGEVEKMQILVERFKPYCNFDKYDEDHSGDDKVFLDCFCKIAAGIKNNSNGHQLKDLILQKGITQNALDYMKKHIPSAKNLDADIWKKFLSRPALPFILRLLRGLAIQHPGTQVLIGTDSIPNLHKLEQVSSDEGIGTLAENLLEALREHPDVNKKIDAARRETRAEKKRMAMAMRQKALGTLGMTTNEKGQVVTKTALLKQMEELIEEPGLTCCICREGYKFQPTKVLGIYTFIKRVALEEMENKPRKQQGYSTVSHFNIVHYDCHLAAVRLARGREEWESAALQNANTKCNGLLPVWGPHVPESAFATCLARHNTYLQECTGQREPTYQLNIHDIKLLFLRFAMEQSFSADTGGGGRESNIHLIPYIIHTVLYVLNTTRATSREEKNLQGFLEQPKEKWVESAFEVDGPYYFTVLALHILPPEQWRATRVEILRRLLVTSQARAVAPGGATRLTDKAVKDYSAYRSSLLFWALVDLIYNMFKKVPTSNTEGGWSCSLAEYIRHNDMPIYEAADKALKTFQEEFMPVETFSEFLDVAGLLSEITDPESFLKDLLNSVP

binding result [1]: binds
B1: p107, endogenous, HeLa extract (other, UniProt P28749 1-1068, looked up)
chain: MFEDKPHAEGAAVVAAAGEALQALCQELNLDEGSAAEALDDFTAIRGNYSLEGEVTHWLACSLYVACRKSIIPTVGKGIMEGNCVSLTRILRSAKLSLIQFFSKMKKWMDMSNLPQEFRERIERLERNFEVSTVIFKKYEPIFLDIFQNPYEEPPKLPRSRKQRRIPCSVKDLFNFCWTLFVYTKGNFRMIGDDLVNSYHLLLCCLDLIFANAIMCPNRQDLLNPSFKGLPSDFHTADFTASEEPPCIIAVLCELHDGLLVEAKGIKEHYFKPYISKLFDRKILKGECLLDLSSFTDNSKAVNKEYEEYVLTVGDFDERIFLGADAEEEIGTPRKFTRDTPLGKLTAQANVEYNLQQHFEKKRSFAPSTPLTGRRYLREKEAVITPVASATQSVSRLQSIVAGLKNAPSDQLINIFESCVRNPVENIMKILKGIGETFCQHYTQSTDEQPGSHIDFAVNRLKLAEILYYKILETVMVQETRRLHGMDMSVLLEQDIFHRSLMACCLEIVLFAYSSPRTFPWIIEVLNLQPFYFYKVIEVVIRSEEGLSRDMVKHLNSIEEQILESLAWSHDSALWEALQVSANKVPTCEEVIFPNNFETGNGGNVQGHLPLMPMSPLMHPRVKEVRTDSGSLRRDMQPLSPISVHERYSSPTAGSAKRRLFGEDPPKEMLMDKIITEGTKLKIAPSSSITAENVSILPGQTLLTMATAPVTGTTGHKVTIPLHGVANDAGEITLIPLSMNTNQESKVKSPVSLTAHSLIGASPKQTNLTKAQEVHSTGINRPKRTGSLALFYRKVYHLASVRLRDLCLKLDVSNELRRKIWTCFEFTLVHCPDLMKDRHLDQLLLCAFYIMAKVTKEERTFQEIMKSYRNQPQANSHVYRSVLLKSIPREVVAYNKNINDDFEMIDCDLEDATKTPDCSSGPVKEERGDLIKFYNTIYVGRVKSFALKYDLANQDHMMDAPPLSPFPHIKQQPGSPRRISQQHSIYISPHKNGSGLTPRSALLYKFNGSPSKSLKDINNMIRQGEQRTKKRVIAIDSDAESPAKRVCQENDDVLLKRLQDVVSERANH

binding result [2]: binds
B2: RB (retinoblastoma protein), endogenous, HeLa extract (other, human, UniProt P06400 2-928, looked up)
chain: PPKTPRKTAATAAAAAAEPPAPPPPPPPEEDPEQDSGPEDLPLVRLEFEETEEPDFTALCQKLKIPDHVRERAWLTWEKVSSVDGVLGGYIQKKKELWGICIFIAAVDLDEMSFTFTELQKNIEISVHKFFNLLKEIDTSTKVDNAMSRLLKKYDVLFALFSKLERTCELIYLTQPSSSISTEINSALVLKVSWITFLLAKGEVLQMEDDLVISFQLMLCVLDYFIKLSPPMLLKEPYKTAVIPINGSPRTPRRGQNRSARIAKQLENDTRIIEVLCKEHECNIDEVKNVYFKNFIPFMNSLGLVTSNGLPEVENLSKRYEEIYLKNKDLDARLFLDHDKTLQTDSIDSFETQRTPRKSNLDEEVNVIPPHTPVRTVMNTIQQLMMILNSASDQPSENLISYFNNCTVNPKESILKRVKDIGYIFKEKFAKAVGQGCVEIGSQRYKLGVRLYYRVMESMLKSEEERLSIQNFSKLLNDNIFHMSLLACALEVVMATYSRSTSQNLDSGTDLSFPWILNVLNLKAFDFYKVIESFIKAEGNLTREMIKHLERCEHRIMESLAWLSDSPLFDLIKQSKDREGPTDHLESACPLNLPLQNNHTAADMYLSPVRSPKKKGSTTRVNSTANAETQATSAFQTQKPLKSTSLSLFYKKVYRLAYLRLNTLCERLLSEHPELEHIIWTLFQHTLQNEYELMRDRHLDQIMMCSMYGICKVKNIDLKFKIIVTAYKDLPHAVQETFKRVLIKEEEYDSIIVFYNSVFMQRLKTNILQYASTRPPTLSPIPHIPRSPYKFPSSPLRIPGGNIYISPLKSPYKISEGLPTPTKMTPRSRILVSIGESFGTSEKFQKINQMVCNSDRVLKRSAEGSNPPKPLKKLRFDIEGSDEADGSKHLPGESKFQQKLAEMTSTRTRMQKQKMNDSMDTSNKEEK
notes: Endogenous RB, both phosphorylation forms together

binding result [3]: binds
B3: RB with the FLAG tag at the C-terminus (other, UniProt P06400 2-928, looked up, not shown: small tags and cut ends)
chain: PPKTPRKTAATAAAAAAEPPAPPPPPPPEEDPEQDSGPEDLPLVRLEFEETEEPDFTALCQKLKIPDHVRERAWLTWEKVSSVDGVLGGYIQKKKELWGICIFIAAVDLDEMSFTFTELQKNIEISVHKFFNLLKEIDTSTKVDNAMSRLLKKYDVLFALFSKLERTCELIYLTQPSSSISTEINSALVLKVSWITFLLAKGEVLQMEDDLVISFQLMLCVLDYFIKLSPPMLLKEPYKTAVIPINGSPRTPRRGQNRSARIAKQLENDTRIIEVLCKEHECNIDEVKNVYFKNFIPFMNSLGLVTSNGLPEVENLSKRYEEIYLKNKDLDARLFLDHDKTLQTDSIDSFETQRTPRKSNLDEEVNVIPPHTPVRTVMNTIQQLMMILNSASDQPSENLISYFNNCTVNPKESILKRVKDIGYIFKEKFAKAVGQGCVEIGSQRYKLGVRLYYRVMESMLKSEEERLSIQNFSKLLNDNIFHMSLLACALEVVMATYSRSTSQNLDSGTDLSFPWILNVLNLKAFDFYKVIESFIKAEGNLTREMIKHLERCEHRIMESLAWLSDSPLFDLIKQSKDREGPTDHLESACPLNLPLQNNHTAADMYLSPVRSPKKKGSTTRVNSTANAETQATSAFQTQKPLKSTSLSLFYKKVYRLAYLRLNTLCERLLSEHPELEHIIWTLFQHTLQNEYELMRDRHLDQIMMCSMYGICKVKNIDLKFKIIVTAYKDLPHAVQETFKRVLIKEEEYDSIIVFYNSVFMQRLKTNILQYASTRPPTLSPIPHIPRSPYKFPSSPLRIPGGNIYISPLKSPYKISEGLPTPTKMTPRSRILVSIGESFGTSEKFQKINQMVCNSDRVLKRSAEGSNPPKPLKKLRFDIEGSDEADGSKHLPGESKFQQKLAEMTSTRTRMQKQKMNDSMDTSNKEEK
notes: also called C-terminally tagged RB

binding result [4]: binds
B4: p130, endogenous, HeLa extract (other, UniProt Q08999 1-1139, looked up)
chain: MPSGGDQSPPPPPPPPAAAASDEEEEDDGEAEDAAPPAESPTPQIQQRFDELCSRLNMDEAARAEAWDSYRSMSESYTLEGNDLHWLACALYVACRKSVPTVSKGTVEGNYVSLTRILKCSEQSLIEFFNKMKKWEDMANLPPHFRERTERLERNFTVSAVIFKKYEPIFQDIFKYPQEEQPRQQRGRKQRRQPCTVSEIFHFCWVLFIYAKGNFPMISDDLVNSYHLLLCALDLVYGNALQCSNRKELVNPNFKGLSEDFHAKDSKPSSDPPCIIEKLCSLHDGLVLEAKGIKEHFWKPYIRKLYEKKLLKGKEENLTGFLEPGNFGESFKAINKAYEEYVLSVGNLDERIFLGEDAEEEIGTLSRCLNAGSGTETAERVQMKNILQQHFDKSKALRISTPLTGVRYIKENSPCVTPVSTATHSLSRLHTMLTGLRNAPSEKLEQILRTCSRDPTQAIANRLKEMFEIYSQHFQPDEDFSNCAKEIASKHFRFAEMLYYKVLESVIEQEQKRLGDMDLSGILEQDAFHRSLLACCLEVVTFSYKPPGNFPFITEIFDVPLYHFYKVIEVFIRAEDGLCREVVKHLNQIEEQILDHLAWKPESPLWEKIRDNENRVPTCEEVMPPQNLERADEICIAGSPLTPRRVTEVRADTGGLGRSITSPTTLYDRYSSPPASTTRRRLFVENDSPSDGGTPGRMPPQPLVNAVPVQNVSGETVSVTPVPGQTLVTMATATVTANNGQTVTIPVQGIANENGGITFFPVQVNVGGQAQAVTGSIQPLSAQALAGSLSSQQVTGTTLQVPGQVAIQQISPGGQQQKQGQSVTSSSNRPRKTSSLSLFFRKVYHLAAVRLRDLCAKLDISDELRKKIWTCFEFSIIQCPELMMDRHLDQLLMCAIYVMAKVTKEDKSFQNIMRCYRTQPQARSQVYRSVLIKGKRKRRNSGSSDSRSHQNSPTELNKDRTSRDSSPVMRSSSTLPVPQPSSAPPTPTRLTGANSDMEEEERGDLIQFYNNIYIKQIKTFAMKYSQANMDAPPLSPYPFVRTGSPRRIQLSQNHPVYISPHKNETMLSPREKIFYYFSNSPSKRLREINSMIRTGETPTKKRGILLEDGSESPAKRICPENHSALLRRLQDVANDRGSH

binding result (GST-RB (379-928)): no binding
B5: His-tagged MTAF600 (4529-4851) (other)
chain: EMNTLNVMLGTLNLALVAEQESKDSGGAAVAEQVLSIMEIILDESNAEPLSEDKGNLLLTGDKDQLVMLLDQINSTFVRSNPSVLQGLLRIIPYLSFGEVEKMQILVERFKPYCNFDKYDEDHSGDDKVFLDCFCKIAAGIKNNSNGHQLKDLILQKGITQNALDYMKKHIPSAKNLDADIWKKFLSRPALPFILRLLRGLAIQHPGTQVLIGTDSIPNLHKLEQVSSDEGIGTLAENLLEALREHPDVNKKIDAARRETRAEKKRMAMAMRQKALGTLGMTTNEKGQVVTKTALLKQMEELIEEPGLTCCICREGYKFQPTK
notes: Expressed in E. coli; not shown: His tag of vector pET28c
